Data on 5 molecules can be found in patent US8603949B2, “Libraries of optimized cytochrome P450 enzymes and the optimized P450 enzymes” (California Institute of Technology, priority 2003, dated 2013).

One may read the Km as the concentration of substrate that gives half-maximal velocity.

“Also recorded” adds a separate entry of the source.

Data set [1] can be described thus: Peroxygenase substrate activity profile. The data set is classed as biochemical. The conditions noted are these: 20 mM H2O2. Summed up: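 Peroxygenase rates were measured with H2O2 (20 mM) at room temperature and pH 8.2. For 12-pNCA (250 μM), 1 μM enzyme in Tris buffer was used, with initial p-nitrophenolate formation read at 410 nm over the first 6 s. For 2-phenoxy-ethanol (100 mM) and allyloxy-benzene (50 mM), 2 μM enzyme in EPPS buffer was used, reactions were quenched, phenol was detected by 4-AAP at 500 nm, and rates are in nmol product/nmol P450/min.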

The nature of data set [2]: Peroxygenase activity, hydroxylation of 12-pNCA. The data set is classed as biochemical. To be noted: 250 μM 12-pNCA. How it is done:
(§1) The chimeras were assayed for hydroxylation of p-nitrophenoxydodecanoic acid (12-pNCA), a fatty acid analog that is hydroxylated by CYP102A1 and CYP102A2 to yield p-nitrophenolate (Schwaneberg et al., Anal Biochem 269,359-366 (1999)). […] When hydroxylation rates for the parent CYP102 enzymes were monitored using the maximum soluble concentrations of these substrates, activity could only be detected on 2-phenoxy-ethanol.
This Example provides one method by which peroxygenase activity of a P450 enzyme may be characterized. First order rates for p-nitrophenolate accumulation were determined using 1 μM enzyme, 20 mM H2O2, 250 μM 12-pNCA and 0.5% dimethyl sulfoxide (DMSO) in 100 mM Tris-HCl (pH 8.2) at room temperature. Enzyme, substrate, buffer and DMSO were combined in a cuvette and zeroed at 410 nm. Reaction mixtures were incubated for 4 minutes and initiated by the addition of H2O2 to a final concentration of 20 mM. Initial rates were determined by monitoring the accumulation of p-nitrophenolate at 410 nm, and data from the first six seconds were used to determine initial rates. […] The extinction coefficient of p-nitrophenolate is 13,200 M^−1cm^−1 (Schwaneberg et al., Anal Biochem 269:359-366 (1999)).

A short description of data set [3]: Peroxidase activity with ABTS and H2O2. The data set is classed as biochemical. The conditions noted are these: for Peroxidase activity: 10 mM ABTS, 20 mM H2O2, pH 5.0, activities <0.2 not detectable (N.D.). Summed up:
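Initial peroxidase rates from ABTS radical cation accumulation at 414 nm: 1 μM enzyme, 10 mM ABTS, 200 mM phosphate pH 5.0, room temperature, started with H2O2 to 20 mM. Monitored 5 min; rate from steepest part of time course using ε 36,000 […].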

Data set [4] is described as follows: Thermostability (loss of Soret band at increasing temperatures). The class given is physicochemical. To be noted: cell extracts heated 10 minutes. Summed up: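 Cell extracts heated 10 minutes at a range of temperatures, cooled to 4° C and centrifuged to remove precipitate. Remaining P450 quantified by carbon monoxide reduced difference spectroscopy, following loss of the CO/Soret peak with temperature.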

The nature of data set [5]: Peroxygenase activity on allyloxy-benzene (4-AAP assay). The class given is biochemical. The conditions noted are these: 50 mM substrate. How it is done: as §1
(§2) Rates on 2-phenoxy-ethanol and allyloxy-benzene were determined using 2 μM enzyme, 20 mM H2O2, 1% DMSO, and 1% acetone in 100 mM N-[2-hydroxyethyl]piperazine-N′-[3-propanesulfonic acid] (Epps) (pH 8.2) at room temperature. Substrate concentrations for 2-phenoxy-ethanol (100 mM) and allyloxy benzene (50 mM) maintained saturation. Reactions were initiated by the addition of H2O2 and quenched at appropriate times using an equal volume of a solution containing 4M urea and 100 mM NaOH. 120 μl of 0.6% 4-AAP was added, followed by mixing and addition of 120 μl of 0.6% potassium persulfate. Color was allowed to develop for 20 minutes before absorbance was read at 500 nm. Rates were determined from the linear region of the time course. The major products were determined by GC/MS to be the hemiacetal, which decomposes to phenol. The extinction coefficient for the 4-AAP/phenol complex was determined to be 4,800 M^−1cm^−1. The results can be seen in FIG. 4.

Data set [6] in a line: Peroxygenase activity on 2-phenoxy-ethanol (4-AAP assay). The class given is biochemical. The conditions noted are these: 100 mM substrate. How it is done:
as §1, §2

The conditions of data set [7]: Li et al. 2001; read-out: KM for 12-pNCA; cited from earlier work.

B1: Chimera 43-135: CYP102A1 heme domain with residues 43-135 from CYP102A2 (protein)
chain: TIKEMPQPKTFGELKNLPLLNTDKPVQALMKIADELGEIFKFHTPAGTTIVVSGHELVKEVCDEERFDKSIEGALEKVRAFSGDGLATSWTHEPNWRKAHNILMPTFSQRAMKDYHEKMVDIAVQLIQKWARLNPDEHIEVPEDMTRLTLDTIGLCGFNYRFNSFYRDQPHPFITSMVRALDEAMNKLQRANPDDPAYDENKRQFQEDIKVMNDLVDKIIADRKASGEQSDDLLTHMLNGKDPETGEPLDDENIRYQIITFLIAGHETTSGLLSFALYFLVKNPHVLQKAAEEAARVLVDPVPSYKQVKQLKYVGMVLNEALRLWPTAPAFSLYAKEDTVLGGEYPLEKGDELMVLIPQLHRDKTIWGDDVEEFRPERFENPSAIPQHAFKPFGNGQRACIGQQFALHEATLVLGMMLKHFDFEDHTNYELDIKETLTLKPEGFVVKAKSKKIPLGGIPSPST
modifications: Chimeric Cytochrome P450 heme group sequence from Bacillus megaterium and Bacillus subtilis
notes: CYP102A1 heme domain with residues 43-135 from CYP102A2
Turning to B1, the “substrate activity profile relative to parents” value in data set [1] is “new activity; also recorded: gained novel activity”. In addition, the “peroxygenase activity on 12-pNCA” value in data set [2] was “not”. For the same molecule, in data set [3], the Peroxidase activity is recorded as 6.8 nmol product/nmol P450/min. Further, the Tm in data set [4] stood at 53 °C. The “peroxygenase activity on allyloxy-benzene” value in data set [5] is “highest rates; also recorded: detectable activity”. Further, the “peroxygenase activity on 2-phenoxy-ethanol” value in data set [6] is reported as “detectable activity”.

B2: Chimera 191-335: CYP102A1 heme domain with residues 191-335 from CYP102A2 (protein)
chain: TIKEMPQPKTFGELKNLPLLNTDKPVQALMKIADELGEIFKFEAPGRVTRYLSSQRLIKEACDESRFDKNLSQALKFVRDFAGDGLATSWTHEKNWKKAHNILLPSFSQQAMKGYHAMMVDIAVQLVQKWERLNADEHIEVPEDMTRLTLDTIGLCGFNYRFNSFYRDQPHPFITSMVRALDEAMNKLQRLDVQDKLMVRTKRQFRYDIQTMFSLVDSIIAERRANGDQDEKDLLARMLNVEDPETGEKLDDENIRFQIITFLIAGHETTSGLLSFATYFLLKHPDKLKKAYEEVDRVLTDAAPTYKQVLELTYIRMILNESLRLWPTAPAFSLYPKEDTVLGGEYPLEKGDELMVLIPQLHRDKTIWGDDVEEFRPERFENPSAIPQHAFKPFGNGQRACIGQQFALHEATLVLGMMLKHFDFEDHTNYELDIKETLTLKPEGFVVKAKSKKIPLGGIPSPST
modifications: Chimeric Cytochrome P450 heme group sequence from Bacillus megaterium and Bacillus subtilis
notes: CYP102A1 heme domain with residues 191-335 from CYP102A2
For the molecule B2, the “substrate activity profile relative to parents” value in data set [1] is “new activity; also recorded: gained novel activity”. Also, the “peroxygenase activity on 12-pNCA” value in data set [2] is given as “not”. Moreover, in data set [3] (ABTS), the “peroxidase activity relative to parents” value was “no detectable peroxidase activity”. In data set [4], the Tm turned out to be 40 °C. In addition, the “peroxygenase activity on allyloxy-benzene” value in data set [5] is reported as “detectable activity”. The “peroxygenase activity on 2-phenoxy-ethanol” value in data set [6] is “detectable activity”.

B3: CYP102A1: parent P450 heme domain from Bacillus megaterium, with the F87A mutation (protein, listed as Bacillus megaterium)
chain: TIKEMPQPKTFGELKNLPLLNTDKPVQALMKIADELGEIFKFEAPGRVTRYLSSQRLIKEACDESRFDKNLSQALKFVRDFAGDGLATSWTHEKNWKKAHNILLPSFSQQAMKGYHAMMVDIAVQLVQKWERLNADEHIEVPEDMTRLTLDTIGLCGFNYRFNSFYRDQPHPFITSMVRALDEAMNKLQRANPDDPAYDENKRQFQEDIKVMNDLVDKIIADRKASGEQSDDLLTHMLNGKDPETGEPLDDENIRYQIITFLIAGHETTSGLLSFALYFLVKNPHVLQKAAEEAARVLVDPVPSYKQVKQLKYVGMVLNEALRLWPTAPAFSLYAKEDTVLGGEYPLEKGDELMVLIPQLHRDKTIWGDDVEEFRPERFENPSAIPQHAFKPFGNGQRACIGQQFALHEATLVLGMMLKHFDFEDHTNYELDIKETLTLKPEGFVVKAKSKKIPLGGIPSPST
As to B3, the Km in data set [7] was 8.1 µM. In addition, the Peroxidase activity in data set [3] is 2.6 nmol product/nmol P450/min. Besides, in data set [3] (ABTS), the “peroxidase activity relative to parents” value is “low, but detectable peroxidase activity”. The Tm in data set [4] is 55 °C.

B4: Chimera 165-256: CYP102A1 heme domain with residues 165-256 from CYP102A2 (protein)
chain: TIKEMPQPKTFGELKNLPLLNTDKPVQALMKIADELGEIFKFEAPGRVTRYLSSQRLIKEACDESRFDKNLSQALKFVRDFAGDGLATSWTHEKNWKKAHNILLPSFSQQAMKGYHAMMVDIAVQLVQKWERLNADEHIEVPEDMTRLTLDTIGLCGFNYRFNSYYRETPHPFINSMVRALDEAMHQMQRLDVQDKLMVRTKRQFRYDIQTMFSLVDSIIAERRANGDQDEKDLLARMLNVEDPETGEKLDDENIRFQIITFLIAGHETTSGLLSFALYFLVKNPHVLQKAAEEAARVLVDPVPSYKQVKQLKYVGMVLNEALRLWPTAPAFSLYAKEDTVLGGEYPLEKGDELMVLIPQLHRDKTIWGDDVEEFRPERFENPSAIPQHAFKPFGNGQRACIGQQFALHEATLVLGMMLKHFDFEDHTNYELDIKETLTLKPEGFVVKAKSKKIPLGGIPSPST
modifications: Chimeric Cytochrome P450 heme group sequence from Bacillus megaterium and Bacillus subtilis
notes: CYP102A1 heme domain with residues 165-256 from CYP102A2
As for B4, the “substrate activity profile relative to parents” value in data set [1] is reported as “broadest substrate specificity; also recorded: new activity; also recorded: active on all three substrates; also recorded: gained novel activity”. The Peroxidase activity in data set [3] is given as 16.1 nmol product/nmol P450/min. Besides, the “peroxidase activity relative to parents” value in data set [3] (ABTS) is given as “significantly higher peroxidase activities”. Moreover, the Tm in data set [4] turned out to be 48 °C. For the same molecule, the “peroxygenase activity on allyloxy-benzene” value in data set [5] is given as “highest rates”.

B5: Chimera 169-197: CYP102A1 heme domain with residues 169-197 from CYP102A2 (protein)
chain: TIKEMPQPKTFGELKNLPLLNTDKPVQALMKIADELGEIFKFEAPGRVTRYLSSQRLIKEACDESRFDKNLSQALKFVRDFAGDGLATSWTHEKNWKKAHNILLPSFSQQAMKGYHAMMVDIAVQLVQKWERLNADEHIEVPEDMTRLTLDTIGLCGFNYRFNSFYRDTPHPFINSMVRALDEAMHQMQRLDVQDKLYDENKRQFQEDIKVMNDLVDKIIADRKASGEQSDDLLTHMLNGKDPETGEPLDDENIRYQIITFLIAGHETTSGLLSFALYFLVKNPHVLQKAAEEAARVLVDPVPSYKQVKQLKYVGMVLNEALRLWPTAPAFSLYAKEDTVLGGEYPLEKGDELMVLIPQLHRDKTIWGDDVEEFRPERFENPSAIPQHAFKPFGNGQRACIGQQFALHEATLVLGMMLKHFDFEDHTNYELDIKETLTLKPEGFVVKAKSKKIPLGGIPSPST
modifications: Chimeric Cytochrome P450 heme group sequence from Bacillus megaterium and Bacillus subtilis
notes: CYP102A1 heme domain with residues 169-197 from CYP102A2
Take B5: in data set [1], the “substrate activity profile relative to parents” value was “parent-like profiles”. Besides, in data set [2], the “peroxygenase activity on 12-pNCA” value is given as “most active; also recorded: significant increase”. Further, the Peroxidase activity in data set [3] was 100.3 nmol product/nmol P450/min. Besides, in data set [3] (ABTS), the “fold increase of peroxidase activity over the most active parent” value is listed as “approximately 40 fold”; the “peroxidase activity relative to parents” value is “highest peroxidase and peroxygenase rates; also recorded: significantly higher peroxidase activities”. For the same molecule, the Tm in data set [4] was found to be 52 °C.
